# Data: paper PMC3516504
# Legend:
# [1] = molecular target: Calmodulin, Ca2+-bound (Ca2+-CaM) (UniProt P0DP23); test: NMR titration; TROSY-HSQC of 2H/15N-labelled Ca2+-CaM titrated with unlabelled apo-Lf (titration data not shown); 20 mM Bis-Tris pH 6.8, 150 mM KCl, 4 mM CaCl2, 37 °C
# [2] = molecular target: Calmodulin, Ca2+-bound (Ca2+-CaM) (UniProt P0DP23); test: native gel or EMSA; non-denaturing PAGE band shift; increasing amounts of Lf incubated with a constant amount of Ca2+-CaM; running buffer 0.1 mM CaCl2, samples 0.5 mM CaCl2, no urea
# [3] = molecular target: Dansylated calmodulin, Ca2+-bound (Ca2+-dCaM) (UniProt P0DP23); test: other fluorescence titration; dansyl fluorescence (excitation 340 nm, intensity at 485 nm); ~80 µM Lf titrated into 1.4 µM dansylated CaM; 50 mM Tris pH 7.5, 1 mM CaCl2, 100 mM KCl (also run at 50 and 150 mM KCl); one site model, CaLigator; triplicate
stoichiometry N [1],stoichiometry N [2],Kd [3] [nM],Substance
1,1,3500,"Human lactoferrin, iron-free (apo-Lf) (natural protein)"
,1,2100,"Human lactoferrin, iron-saturated (Fe3+-Lf) (natural protein)"
